Experimental data as given in patent US20240182575A1 (Ablynx, published 2024).
Where a chain is given by its changes, count along the chain named. Values belong to the binder of their own block, whether it stands above or below them.

Assays:
[1] = target: T1, rhPDL2-Fc (fusion protein of the extracellular part of human PD-L2 and mouse Fc gamma 1, R&D Systems Cat … (human; mouse, UniProt Q9BQ51 20-220; P01868 98-324 = IgG part, limits assumed); assay: ELISA, coated PD-L2
T1 construct: extracellular domain;domain: Fc; bought; also called PD-L2 ectodomain
T1 sequence (Q9BQ51 other isoform, or with tags, fused parts or gaps limits assumed): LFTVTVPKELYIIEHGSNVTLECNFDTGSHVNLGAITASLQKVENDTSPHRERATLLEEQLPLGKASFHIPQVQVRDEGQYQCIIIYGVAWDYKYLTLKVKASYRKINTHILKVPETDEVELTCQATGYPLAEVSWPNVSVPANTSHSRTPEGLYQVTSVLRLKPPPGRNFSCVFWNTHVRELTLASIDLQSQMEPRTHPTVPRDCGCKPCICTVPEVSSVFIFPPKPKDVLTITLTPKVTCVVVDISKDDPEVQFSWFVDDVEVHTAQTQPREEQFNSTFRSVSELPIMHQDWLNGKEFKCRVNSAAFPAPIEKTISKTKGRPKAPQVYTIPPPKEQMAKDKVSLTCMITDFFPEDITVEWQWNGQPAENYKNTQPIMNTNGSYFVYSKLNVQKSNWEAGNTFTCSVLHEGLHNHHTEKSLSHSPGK
Method: In short, 5 μg/ml PD-L2 ectodomain (R&D Systems, Minneapolis, US, Cat #1224-PL) was immobilized on maxisorp microtiter plates (Nunc, Wiesbaden, Germany) and free binding sites were blocked using 4% Marvel in PBS. Next, 10 μl of periplasmic extract containing Nanobody of the different clones in 100 μl 2% Marvel PBST were allowed to bind to the immobilized antigen. […] Binding specificity was determined based on OD values compared to controls having received no Nanobody (low control).
After expression, the obtained Nanobodies were purified via the His-tag on Talon beads.

[2] = target: T2, rhB7H1-Fc (fusion protein of the extracellular part of human B7-H1 (PD-L1) and mouse Fc gamma 1, R&D Systems … (human; mouse, UniProt Q9NZQ7 19-238; P01868 98-324 = IgG part, limits assumed); assay: ELISA, coated B7-H1
T2 construct: extracellular domain;domain: Fc; bought; also called B7-H1 ectodomain
T2 sequence (Q9NZQ7 other isoform, or with tags, fused parts or gaps limits assumed): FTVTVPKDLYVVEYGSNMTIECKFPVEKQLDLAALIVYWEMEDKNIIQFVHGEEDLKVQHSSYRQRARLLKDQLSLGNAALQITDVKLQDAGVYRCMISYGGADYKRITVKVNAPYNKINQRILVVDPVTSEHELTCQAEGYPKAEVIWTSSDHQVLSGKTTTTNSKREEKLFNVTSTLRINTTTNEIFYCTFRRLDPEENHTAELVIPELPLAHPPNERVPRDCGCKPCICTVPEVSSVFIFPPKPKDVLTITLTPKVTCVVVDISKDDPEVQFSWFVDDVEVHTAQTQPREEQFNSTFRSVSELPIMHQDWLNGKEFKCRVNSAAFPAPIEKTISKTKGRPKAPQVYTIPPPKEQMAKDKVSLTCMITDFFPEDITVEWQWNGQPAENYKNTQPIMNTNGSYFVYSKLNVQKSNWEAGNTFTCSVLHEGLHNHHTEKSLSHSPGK

[3] = target: T2, rhB7H1-Fc (fusion protein of the …); assay: competition ELISA, coated B7-H1; blocked ligand PD-1-biotin
Method: Next, 0.5 μg/ml of PD-1 was preincubated with a dilution series of purified Nanobody.

[4] = target: T3, rhB7-H2-Fc (fusion protein of the extracellular part of human B7-H2 (ICOSL) and mouse Fc gamma 1, R&D Systems … (human; mouse, UniProt O75144 19-256; P01868 98-324 = IgG part, limits assumed); assay: competition ELISA, coated B7-H2; blocked ligand ICOS-biotin
T3 construct: extracellular domain;domain: Fc; bought; also called B7-H2 ectodomain
T3 sequence (O75144 other isoform, or with tags, fused parts or gaps limits assumed): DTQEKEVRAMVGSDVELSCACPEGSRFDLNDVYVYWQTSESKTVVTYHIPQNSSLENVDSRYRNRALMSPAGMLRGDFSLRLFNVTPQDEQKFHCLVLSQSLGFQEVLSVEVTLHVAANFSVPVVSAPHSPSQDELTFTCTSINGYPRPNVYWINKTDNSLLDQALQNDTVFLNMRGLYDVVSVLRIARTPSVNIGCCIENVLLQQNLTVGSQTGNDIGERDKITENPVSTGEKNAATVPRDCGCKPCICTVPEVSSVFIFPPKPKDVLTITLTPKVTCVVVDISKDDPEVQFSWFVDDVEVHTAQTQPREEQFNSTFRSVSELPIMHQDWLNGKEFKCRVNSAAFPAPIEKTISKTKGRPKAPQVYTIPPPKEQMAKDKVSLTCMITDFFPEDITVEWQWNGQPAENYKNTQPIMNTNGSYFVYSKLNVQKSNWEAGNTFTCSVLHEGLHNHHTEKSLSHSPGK

[5] = target: T3, rhB7-H2-Fc (fusion protein of the …); assay: ELISA, coated B7-H2
Method: Next, 10 μl of periplasmic extract containing Nanobody of the different clones in 100 μl 2% Marvel PBST were allowed to bind to the immobilized antigen. […] Binding specificity was determined based on OD values compared to controls having received no Nanobody (low control).
After expression, the Nanobodies were purified via the His-tag on Talon beads.

[6] = target: T4, HuCTLA4-HuIgG1 (fusion protein of the extracellular part of human CD152 and human Fc gamma 1, CTLA4-Ig) (human, UniProt P16410 36-161); assay: SPR, Biacore T100, CTLA4-Ig amine-coupled
T4 construct: extracellular domain; also called CTLA4-hFc; CTLA4-Fc; not shown: human Fc gamma 1
T4 sequence (P16410 36-161 limits assumed): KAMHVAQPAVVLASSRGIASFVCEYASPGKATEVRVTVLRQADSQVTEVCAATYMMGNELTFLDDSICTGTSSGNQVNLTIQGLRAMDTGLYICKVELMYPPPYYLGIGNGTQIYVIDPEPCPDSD
Method: Affinity constants (Kd) of individual purified Nanobody clones were determined by surface plasmon resonance on a Biacore T100 instrument. […] Remaining reactive groups were inactivated using ethanolamine. […] Each sample was injected for 2 min at a flow rate of 45 μl/min to allow for binding to chip-bound antigen. Next, binding buffer without Nanobody was sent over the chip at the same flow rate to allow for dissociation of bound Nanobody. After 2 min, remaining bound analyte was removed by injecting regeneration solution (10 mM Glycine/HCl pH 1.5). Binding curves obtained at different concentrations of Nanobody were used to calculate KD values. For some clones, only a single undetermined concentrations of Nanobody was injected.

[7] = target: T5, human CTLA4 (Y201 mutated to valine) on stably transfected CHO-K1 cells (human, UniProt P16410 36-223); assay: FACS competition, human CTLA4 CHO cells; blocked ligand CD80-Fc
T5 construct: whole, on cells; the mutation of the intracellular position Y201 keeps the protein on the membrane; also called human CTLA4 overexpressing CHO cells; human CTLA4 transfectant
Source text: The potency of selected Nanobodies to inhibit the interaction of CTLA4 with CD80 was also ranked using FACS based screening method. […] This concentration was previously determined to be the minimal amount required to saturate all CD80 binding sites on both human and cyno CTLA4 expressing CHO cell clones in the absence of any CTLA4 interaction blocking proteins. […] Dead cells were stained by including TOPRO3 vital dye in the final resuspension buffer. All samples were read on a BD FACSarray instrument. Dead cells were excluded from the analysis by gating out TOPRO3 vital dye positive scoring cells.

[8] = target: T5, human CTLA4 (Y201 mutated to valine) on …; assay: FACS, direct binding titration on human CTLA4 CHO cells (head prints IC50)
Method: Binding of putative CTLA4 reactive Nanobodies clones was detected using unlabeled anti-c-myc tag mouse monoclonal antibody 9E10, followed by a phycoerythrin conjugated F(ab′)2 derived from goat-anti-mouse IgG (human and bovine crossabsorbed), and read on a BD FACSarray instrument. Dead cells were excluded from the analysis by gating out TOPRO3 vital dye positive scoring cells. Binding of the Nanobodies to cells was evaluated in BD FACSarray control software as PE channel histograms.

[9] = target: T6, cynomolgus monkey CTLA4 on stably transfected CHO-K1 cells (human CTLA4 cDNA with S13N, I17T and L105M) (human backbone with cynomolgus monkey …, UniProt P16410 36-223); assay: FACS, direct binding titration on cyno CTLA4 CHO cells (head prints IC50)
T6 chain: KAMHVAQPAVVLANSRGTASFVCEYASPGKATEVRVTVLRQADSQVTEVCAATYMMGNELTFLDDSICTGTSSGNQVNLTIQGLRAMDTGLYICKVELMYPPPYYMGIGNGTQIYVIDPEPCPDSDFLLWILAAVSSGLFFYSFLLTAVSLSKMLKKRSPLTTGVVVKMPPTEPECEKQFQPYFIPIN

[10] = target: T1, rhPDL2-Fc (fusion protein of the …); assay: competition ELISA, coated PD-L2; blocked ligand PD-1-biotin
Method: In short, 2 μg/ml PD-L2 ectodomain (R&D Systems, Minneapolis, US, Cat #1224-PL) was immobilized on maxisorp microtiter plates (Nunc, Wiesbaden, Germany) and free binding sites were blocked using 4% Marvel in PBS. Next, 0.5 μg/ml of PD-1 was preincubated with a dilution series of purified Nanobody.

[11] = target: T4, HuCTLA4-HuIgG1 (fusion protein of the …); assay: alphascreen; competitor biotinylated HuCD80-MuIgG2a
Source text: Individual clones were scored as putative CTLA4/CD80 interaction inhibiting if the presence of the periplasmic extract decreased the fluorescent signal of the acceptor beads.

[12] = target: T7, HuCD86-MuIgG2a (fusion protein of the extracellular part of human CD86 and mouse Fc gamma 2a, Ancell Cat … (human; mouse, UniProt P42081 24-247; P01863 98-330 = IgG part); assay: competition ELISA, coated CD86-Ig; blocked ligand CD28-Ig
T7 construct: extracellular domain;domain: Fc; bought; also called B7-2
T7 sequence (P42081 other isoform, or with tags, fused parts or gaps limits assumed): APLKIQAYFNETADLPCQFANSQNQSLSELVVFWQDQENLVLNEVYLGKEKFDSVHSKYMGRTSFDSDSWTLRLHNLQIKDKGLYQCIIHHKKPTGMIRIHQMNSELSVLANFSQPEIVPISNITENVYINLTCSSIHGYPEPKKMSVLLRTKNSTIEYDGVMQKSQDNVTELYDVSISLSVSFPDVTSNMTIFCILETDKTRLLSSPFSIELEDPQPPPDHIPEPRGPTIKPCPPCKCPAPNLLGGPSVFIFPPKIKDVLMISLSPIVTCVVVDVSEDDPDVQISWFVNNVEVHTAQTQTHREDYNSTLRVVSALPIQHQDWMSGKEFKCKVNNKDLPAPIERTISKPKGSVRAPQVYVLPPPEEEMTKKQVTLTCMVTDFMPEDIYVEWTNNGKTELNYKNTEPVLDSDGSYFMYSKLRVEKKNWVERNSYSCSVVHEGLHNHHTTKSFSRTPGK

binding result [1]: binds
B2: 103E3 (VHH)
VHH: EVQLVESGGGLVQTGGSLRLSCAASGFTLDYYGIGWFRQAPGKEREGVSFISGSDGSTYYAESVKGRFTISRDKAKNTVYLQMNSLKPEDTAVYYCAADPWGPPSIATMTSYEYKHWGQGTQVTVSS
notes: Nanobody against PD-L2

EC50 (read off the curve) [2]: 5 to 6 nM | IC50 (read off the curve) [3]: ~10 nM
B3: 104D2 (VHH)
VHH: EVQLVESGGGLVQPGGSLRLSCAASGFTLDYYAIGWFRQAPGKEREWASSISSSDGSTYYADSVKGRFTISRDNAKNTVFLQMNSLKPEDTAVYSCAASQAPITIATMMKPFYDYWGQGTQVTVSS

binding result [5]: binds
B7: 95E6 (VHH)
VHH: EVQLVESGGALVQPGGSLRLSCAASGFTLGDYVIGWFRQAPGKEREWVSGISSRDDTTYYANSVKGRFTISRDNAKNTMYLQMNSLKPEDSAVYYCALRSGIAVARAPTNYDYWGQGTQVTVSS
notes: Nanobody against B7-H2 (ICOSL)

EC50 (read off the curve) [2]: ~3 nM | IC50 (read off the curve) [3]: ~9 nM
B9: 104F5 (VHH)
VHH: EVQLVESGGGLVQPGGSLRLSCAASGFTLDYYAKCWFRQAPGKEREWVSCISSSDGSTYYADSVKGRFTISRDNAKNTVYLQMNSLKPEDTAVYFCAARHGGPLTVEYFFDYWGQGTQVTVSS

binding result [12]: binds
B12: CD8086PMP2B4 (VHH)
VHH: EVQLVESGGGLVQAGGSLRLSCAASGSIFSIYTMGWYRQAPGEQRELVAAITSGGSTNYADSVKGRFTISRDNAKNTVYLQMNSLKPEDTAVYYCNAIAHEEGVYRWDFWGQGTQVTVSS
notes: not shown: C-terminal c-myc tag and His6 tag

EC50 (read off the curve) [2]: ~10 nM
B13: 104E12 (VHH)
VHH: EVQLVESGGGLVQPGGSLRLSCAASGFTFDYYAIGWFRQAPGKAREGVSCISGGDNSTYYADSVKGRFTISRDNAKNTVYLQMNSLKPEDTAVYYCATGGWKYCSGYDPEYIYWGQGTQVTVSS

Continued, binder first:

B1: 103F10 (VHH)
VHH: EVQLVESGGGLVQAGGSLRLSCAASGRTFSSGTMGWFRRAPGKEREFVASIPWSGGRTYYADSVKDRFTISRDNAQNTVFLQMNSLKPEDTAVYYCAFKERSTGWDFASWGQGIQVTVSS
notes: Nanobody against PD-L2
EC50 (read off the curve) [1]: ~20 nM

B4: 95G5 (VHH)
VHH: EVQLVESGGGLVQAGGSLRLSCASSGSTFSIDVMGWYRQAPGKVRERVAIIGTGGFPVYADSVKGRFTISRDNAKNTVYLQMNSLKPEDTAVYYCNAARLVALGSWGQGTQVTVSS
notes: as for B7
IC50 (read off the curve) [4]: ~10 nM | EC50 (read off the curve) [5]: ~100 nM

B5: 4CTLAPMP02F2 (VHH)
VHH: EVQLMESGGGLVQTGGSLRLSCAASGRTFSNYTMGWFRQAPGKDREFVAAISRSGSLKAYADSVKGRFTPSRDNAKKMAYLQMNSLKPEDTAVYYCAAAPVPWGTRPSLFPYDSWGQGTQVTVSS
notes: short label tied to the entry by the clone code only; not shown: C-terminal c-myc tag and His6 tag
Kd [6]: 0.638 nM | koff [6]: 0.00391 s⁻¹ | kon [6]: 6.13e+06 M⁻¹ s⁻¹ | IC50 (read off the curve) [7]: ~10 nM | IC50 [8]: 2.56 nM | IC50 [9]: 2.42 nM

B6: 4CTLAPMP02G2 (VHH)
VHH: B5 VHH with M5V, G8R, A59S, P70I, L109F, P111T
notes: as for B5
Kd [6]: 0.478 nM | koff [6]: 0.00355 s⁻¹ | kon [6]: 7.42e+06 M⁻¹ s⁻¹ | IC50 (read off the curve) [7]: ~8 nM | IC50 [8]: 2.28 nM | IC50 [9]: 2.08 nM

B8: 104B10 (VHH)
VHH: EVQLVESGGGLVQAGGSLRLSCAASGSTFSQYDVGWYRQAPGKQRELVAFSSSGGRTIYPDSVKGRFTFSRDNTKNTVYLQMTSLKPEDTAVYYCKIDWYLNSYWGQGTQVTVSS
IC50 (read off the curve) [3]: ~20 nM

B10: 103D3 (VHH)
VHH: EVQLVESGGGLVEPGGSLRLSCVASGFTFSSYDMSWVRQAPGKGLEWVSTINSGGGITYRGSVKGRFTISRDNAKNTLYLQMNSLKPEDTAVYYCENGGSSYRRGQGTQVTVSS
notes: Nanobody against PD-L2
EC50 (read off the curve) [1]: ~7 nM | IC50 (read off the curve) [10]: ~10 nM

B11: 4CTLAPMP2G9 (VHH)
VHH: EVQLVKSGGQLVQAGGSLRLSCAATGRTYNSYPLGWFRQAPGKEREFVAAISASGTLRAYADSVKGRFTISRDSAKNTVYLQMNNLKPEDTAVYYCARARSVGWRASHHLSDYDNWGQGTQVTVSS
notes: as for B5
Kd [6]: 1.69 nM | koff [6]: 0.00732 s⁻¹ | kon [6]: 4.35e+06 M⁻¹ s⁻¹ | IC50 [8]: 2.47 nM | IC50 [9]: 2.66 nM | IC50 [11]: 2.01 nM
